Measurements from paper PMC11190351 (Plant Direct, 2024).

Molecular target: the molecule itself
Test: SEC

B1: Chlamydomonas reinhardtii alpha amylase 2 (AMA2), full-length recombinant enzyme (enzyme, UniProt A0A2K3DGK5 1-706, looked up)
chain: MDRSLLSRTSPRMQLGRPQQLPPPTVPLAQVPRLQRRCVVGSRVCQPVVAVRPGRASAGRGGRLVVSSVDMSNSPLSSMDAGEGLDIMFDNNSDAECTVVTVEGKDKAHLLMSLTGGFSSAGLTVISASITSDDGRVLDVFRVQTADGKKVPEEQFPSVREHILSVTATSSRSSMPAIYGIVAAAEVERLKPLRSQSTQNDVDALELAAAEMTQAVAELVATERDIIRMRASNADARTLQTKEANRTEAAAGLERKMAAMQAVLAARRNLATEPEKPKSPTEKLLETLKPPTPMRAAAGAGSGSGSEILLQAFNWESHRQKLYKQLMGRVKDISDAGFTGVWMPPPSDSVSPQGYLPRDLYSLDSAYGSEAELRELIAAFHQNNIKVIADIVVNHRCANSQGSDGKWNKFGGRLAWDASAICSNNPSFGGRGNPKQGDDYAAAPNIDHSQERIRNDIVQWMKYLRNSIGFDGWRFDFVRGYLGSYCKQYIDETVPAMAFGEYWDSCEYTDGVLNYNQDAHRQRTVNWCDSTGGTSAAFDFTTKGILQEAVGRREYWRLVDSQGRPPGVMGMWPSRAITFIDNHDTGSTLNHWPFPSRNLPEGYAYILTHPGTPCVFYDHFYQEENNLRKIILDLLKVRRRNGLNARSKVVMKKSAADVYAAMIDDKVAVKLGPGDWSPNQSGIKVNGKELKVAASGFQFAVWEGQH
stoichiometry N: 2
